Tested on: CC[C@H]1C[C@@H]2C[C@H]3c4[nH]c5ccc(O)cc5c4CCN(C2)[C@@H]13
Experiment: HPLC-MS of ibogaine formation, Michaelis-Menten fit
Format: biochemical, Tabernanthe iboga
Conditions: SAM, HEPES, pH 9 (relative-rate assays adjusted to optimum), 30 °C, 25 min
Description: HPLC-MS of ibogaine formation, Michaelis-Menten fit on N10OMT (noribogaine-10-O-methyltransferase; OMT candidate 1)

N10OMT (noribogaine-10-O-methyltransferase; OMT candidate 1) (Tabernanthe iboga)
Km: 73.6 ± 28.5 µM
Vmax: 0.00084 µmol/min/mg
kcat: 0.000548 ± 7.23e-05 s⁻¹
kcat/Km: 7.45 ± 3.05 M⁻¹ s⁻¹

Source: PMC6130943, “Cytochrome P450 and O-methyltransferase catalyze the final steps in the biosynthesis of the anti-addictive alkaloid ibogaine from Tabernanthe iboga” (The Journal of Biological Chemistry, 2018)
